Assay results as given in the DeepSol protein solubility set.

Assay: soluble on expression in E. coli; label from the status in PepcDB or PDB records

| Sequence | soluble on expression in E. coli |
| --- | --- |
| MAHHHHHHVSASPPQRDRGSPPTRPLSEPQDVDAPAAGTVQALRQAVEAQEACVRLLRARQAAREALLRHTRRLLTADDSIEWPGSVEQLVRQVEASLHKLQQAHSEAAAPAATTADNVAPTSAPSRSPRNAAGDADPSADPLARIFHSGVEAQLAAVAEPPHTLPASTLASRSSTAKRRKEAGESGLTNAVSTTSPPPGGPFPPRSAAMTALLARSASRQEAGHAAMLAALSALELSLMSNSGATEVGRDVHNAEPAWLRQVDSDSANDDDAAPEEQQQEKEGNRGDIASSDYSDDFECGSSTSSGADD | soluble |
| TEVELAYLVSESQLIGITGSNGKTTTTTMIAEVLNAGGQRGLLAGNIGFPASEVVQAANDKDTLVMELSSFQLMGVKEFRPHIAVITNLMPTHLDYHGSFEDYVAAKWNIQNQMSSSDFLVLNFNQGISKELAKTTKATIVPFSTTEKVDGAYVQDKQLFYKGENIMSVDDIGVPGSHNVENALATIAVAKLAGISNQVIRETLSNFGG | not soluble |
| MGSDKIHHHHHHMKITQIRNATLQLEFGGKTFLIDPMLAPKATYPGFPGTANDHLRNPLVELPLPMATILDVDAVIVTHTHLDHWDDAAIKAIPKTMPIFSQNAQDADLIRRAGFISVRVLGEQMEYDGITLIKTAGQHGSDETYANPQLAERLGEVCGIVFQHANEKSFYLAGDTVWNQHVIDVLTDYSPDVVALNIGNAFIPSFGSIIMGKEDVRRVHQLVPNAAIVATHMEAVNHCLLSRAELRDYLHEEKLQSIAHVPNDGESVQF | not soluble |
| MSLTRDGSPWIPIAGEMHYSRIAAERWDTELAKMAAAGIDVVSTYVFWNHHEEREGEWDFSGNRNVRRFVELCARHGLHVIVRLGPFCHGEVRNGGLPDWLYGKSYEVRSLDAGFLDAVRGLYAHIAQQLRGLYFKDGGPIIAAQVDNEYMASSAPWEMTTGISREWVPSGHDGAGYLERLRDIAIEEGIDPPMFTCTGWQSPVPDDMLPLWGGYAYRPWLFYDGVGAEGMTEHPATDEYRYRRLHGSSTSDGFDPPYDPDSRPYACCEMGGGMFNSYDYRFVLPKRSVDAMANIKLGSGCDFLGYYMFHGGTNPKGAAGFLNEGQTPKRSYDFQAPLGKFGQVRESYRRLRTLHEFVKAFGPELAGMPVSLQDGQDRIDPSDSETLRYAVRSDGERGFVSIDNFQDHARVPSRHGEQIDVTTGTGERIRFTGIGLAEGENCILPFNMDLDGVRLVRANLQPVTVLRVPGRPFRTFVFLKPDGMDELTFHFEGDIQDVTVGKADFERFMVRDAAEIVCVTRALAGRMTVLDGGLAFVDDDNALLYEDGDGWTLESPRAENGIAAYPEGLLGSPRPVEPVSVYARMRRLHADRYEIALPAGMGRLFRDQRQVADVMLNIAYQGDIGWLFCGDVLIADNFCNGETWQVGLRDYADAIDAAGGKLTLVVTPLRRGVRVKVTSSMAARLEQSDACVADVTDVYATPVYHMPVGEGHHHHHH | soluble |
| MGSDKIHHHHHHMQTIKLYIKDWLAIHPYIQQQATDRYFVDLANRLYSTCTIREIPESIKKKLCLYTAAYFEDVISGLGLWQAFIKKHLELYDTSLPFYTIRPDYIKDEINEEDIRFIIWNTLEKAPYKHPYINPMDRNIEETSHSFFRILDEEYETAPANDTLQDFFMDFKGKENANHKLRWLFGHTYLTEPSVQEYIAQVTETDKFIIPCGPLALFLHEWIDLLTNGETECWEEIEGLYPAIPEISDEMKERNHHTYQLFTQGTNGARIVYLEGYKELHRFLTQVLQWPDDSNHTLPQMKEHKDFIMMVNSEKGILLAKDICKYISDPLNPMYDAATAAQEAFSLLTIPTKCPPDLMEYVINNHYIPDAQFPEFGERELVQKNADFIARNSLLYYYRGD | not soluble |
| DMSKVNLEVIKPWITKRVTEILGFEDDVVIEFIFNQLEVKNPDSKMMQINLTGFLNGKNAREFMGELWPLLLSAQENIAGIPSAFLELKK | not soluble |
| MGSDKIHHHHHHLTNQMVYVYKDGKQVVSSQCVTGCIAKGHGTPTGVYSIFSMDKDRYLRGDGYKSWVNFFVPFNGGIGFHDASWRSTFGGNIYLYSGSHGCINMPYSEVKKLFANVSMGETVIVYGGATSVDGKEQSFTGQDAYSVTEGDASFNLGVTAQDNAKLTYVSDNEWVAKVDESGNVTPVGVGTATITVKSEATAGYRAGTKTITVTVNAKAQPQVQPQKPAQQQPQKPAQQQQPQKPAAKKDASVNVSESDVSLEINGTKKINISVSSDTGATVEVESGDASVATLDSNGNIVAKNEGQVTYKVYTKATGSYNASNVSYVTIKVSKPAEPDDSGADADRE | not soluble |
| MGSDKIHHHHHHMDEMKVIEIIKKTLKFSNENIVKGIDDDCAIIKIDENFYLVATTDMMVKKAHIPSILSPYEIGGRILTANVSDIASMGAKPLAFLVSISLSKEEANEKFIKELYSGLDDFSKLYDCPVVGGDTNRGDELILSGTAFGITDNPIYRRGKVGDDICVTNDLGRVYCALTLYYMLKENKISYKEFERLCQKYPKIIEKLRKPIARIKEGLLMNKLINGCCDISDGLGKEITYFKNFEIYSDRIFKLIPEDVIEFCDAFNLNPIKVALNSGEEFELLFTTSKFNKVKDSLKGYSKIYKIGKIIEDGQFIDGEEFYGGGYIHKW | not soluble |
| MGSDKIHHHHHHMKIIPVFLPYAGCKKRCVFCDQIKATGQAKVPSLDDIARIIEEYSRTSNEYELGFYGGTFTGLSEEKMEEYLRFVKRFPVVKSVRVSTRPDEINERKLKILKKYGVNVIEIGVQSFLDEVLERSKRGYTSEEAEGACKLIKKNGFVLSVHLMVGLPGSDRRGEILSALRTVECGADMVRIHPTLVFEGTELHRMMEEGEYTPLNVEEAVDVCSDLVCIFEGWGTKVIRIGYHVPVELRKYVVAGPIDPSLGDRVRRTTMKKVIESLKPSRIVVPKNYLVWFEEAKVEVGDEFRFDDLSYADALFFTGKEVVERWLNG | not soluble |
| MATVIHNPLKALGDQFYKEAIEHCRSYNSRLSAERSVRLPFLDSQTGVAQNNCYIWMEKRHRGPGLAPGQLYTYPARCWRKKRRLHPPEDPKLRLLEIKPEVELPLKKDGFTSESTTLEALLRGEGVEKKVDAREEESIQEIQRVLENDENVEEGNEEEDLEEDIPKRKDRTRGRARCPLPSLHCFSSLPSAVIDAKEWGGGGKWEATVAYRKKKIYPVHIFNMLEHHHHHH | not soluble |
| MAHHHHHHMMSTYMTRYDYDYNRDPSLTGSDGGSGGGFEQEISGEVRNRPIFAYGVDTGDRDDRTIYQVDYTHKDRSVKNMAGLAATLKGSAASAAAARMRGQDNGTAYQHNWYLPAASAHVVLVDGSHPHTVYQDDYQAPRHVAGGAVHDPVCYAGAAAAAYNADLLKPHGVMEDDGADLAPKITSKESLLPRKHASPNATWTPVFENTADHRHTWNDCVPGDGVVGTYVCTSWDYGDTSQAHPLQLPLSLARSLAAHNLDASANPDKAALLRHLAGKNYSSRTLRGSSSGAPLDTNDRTNPQFLSTVEQKRCAVSRRLEKEHYVTMSIYKSDFIDQGLLPELPGNPGGPADVRDTHTSPLATAGEMMAGQLTTATRELGLLRNAHGTLKSGEAHAASRVSTGVLSAMRAMEKAASIDKADPHCHKLCE | not soluble |
| MGHHHHHHSHGTRSKLSRHGSGADSDYENTQSGDPLLGLEGKRFLELGKEEDFHPELESLDGDLDPGLPSTEDVILKTEQVTKNIQELLRAAQEFKHDSFVPCSEKIHLAVTEMASLFPKRPALEPVRSSLRLLNASAYRLQSECRKTVPPEPGAPVDFQLLTQQVIQCAYDIAKAAKQLVTITTREKKQ | soluble |
| MGSDKIHHHHHHMYPKNTWYVACTPDEIATKPLGRQICGEKIVFYRARENQVAAVEDFCPHRGAPLSLGYVEDGNLVCGYHGLVMGCDGKTVSMPGQRVRGFPCNKTFAAVERYGFIWVWPGDQAQADPALIPHLEWAVSDEWAYGGGLFHIGCDYRLMIDNLMDLTHETYVHASSIGQKEIDEAPPVTTVTGDEVVTARHMENIMAPPFWRMALRGNGLADDVPVDRWQICRFTPPSHVLIEVGVAHAGKGGYHAEAQHKASSIVVDFITPESDTSIWYFWGMARNFAAHDQTLTDNIREGQGKIFSEDLEMLERQQQNLLAHPERNLLKLNIDAGGVQSRKVLERIIAQERAPQPQLIATSANPA | not soluble |
